Legend:
[1] = biological target: T1, human prostate specific membrane antigen (PSMA) (human, UniProt Q04609 1-750); experiment: flow cytometry on PSMA-transfected Sp2/0 cells
T1 construct: whole, on cells; also called PMSA; FOLH1
Procedure: Binding (FIG. 5A), lack of binding competition (FIG. 5B) and shift of the PSMA antigen upon antibody binding (FIG. 5C) was assessed by flow cytometry using PSMA-transfected Sp2/0 cells. To this end different α-PSMA antibodies were incubated with these cells in 96-well plates for 30-45 min at 4° C. Cells were then washed and incubated with a PE-conjugated goat-anti-mouse F(ab)₂ fragment (FIGS. 5A, 5C) (Jackson ImmunoResearch) or a PE-goat-anti-human FC-γ specific fragment (Jackson ImmunoResearch) (B). Cells were analyzed on a FACSCalibur (BD Biosciences). […] For the determination of antigen shift (FIG. 5C) PSMA expressing cells were incubated with the indicated antibodies at the beginning of the experiment and again after 24 hrs and before FACS analysis with a saturating amount (10 μg/ml) of the respective antibody. PSMA expression by untreated cells served as a reference (100% PSMA expression)

[2] = biological target: T1, human prostate specific membrane …; experiment: flow cytometry on PSMA-expressing 22RV1 cells
Procedure: To this end, the cells were incubated with the indicated antibodies in 96 well plates for 30-45 min at 4° C. Upon incubation cells were washed and incubated with a secondary PE-goat-anti-human FC-γ specific fragment (Jackson ImmunoResearch). Cells were analyzed on a FACSCalibur (BD Biosciences).

[3] = biological target: T1, human prostate specific membrane …; experiment: in vivo biodistribution of radioisotope labeled CC-1 in mice with 22Rv1 (PSMA positive) or DU145 (PSMA negative) tumors

B1: murine antibody 10B3 (antibody, IgG2b, V domains shown)
VH: QVQLQESGGGLVKPGGSLKLSCAASGFTFSDFYMYWVRQTPEKRLEWVATISDGGGYTSYPDSVKGRFTISRDIAKNNLYLQMNSLKSEDTAKYYCARGLWLRDALDYWGQGTSVTVSS
VL: EIVLTQSPITMAAFLGERITITCSASSSISSNYLHWYQQKPGFSPKLLIYRTSNLASGVPIRFSGSGSGTSYSLTIGTMEAEDVATYYCQQGSYIPFTFGSGTKLEIKR
notes: Mouse hybridoma antibody, isotype IgG2b/kappa; also called mu 10B3; m10B3
[1]
  binding result: binds

B2: PSMA (humanized h10B3) x CD3 (murine OKT3) bispecific Fabsc format antibody molecule (bispecific antibody, IgG1)
heavy: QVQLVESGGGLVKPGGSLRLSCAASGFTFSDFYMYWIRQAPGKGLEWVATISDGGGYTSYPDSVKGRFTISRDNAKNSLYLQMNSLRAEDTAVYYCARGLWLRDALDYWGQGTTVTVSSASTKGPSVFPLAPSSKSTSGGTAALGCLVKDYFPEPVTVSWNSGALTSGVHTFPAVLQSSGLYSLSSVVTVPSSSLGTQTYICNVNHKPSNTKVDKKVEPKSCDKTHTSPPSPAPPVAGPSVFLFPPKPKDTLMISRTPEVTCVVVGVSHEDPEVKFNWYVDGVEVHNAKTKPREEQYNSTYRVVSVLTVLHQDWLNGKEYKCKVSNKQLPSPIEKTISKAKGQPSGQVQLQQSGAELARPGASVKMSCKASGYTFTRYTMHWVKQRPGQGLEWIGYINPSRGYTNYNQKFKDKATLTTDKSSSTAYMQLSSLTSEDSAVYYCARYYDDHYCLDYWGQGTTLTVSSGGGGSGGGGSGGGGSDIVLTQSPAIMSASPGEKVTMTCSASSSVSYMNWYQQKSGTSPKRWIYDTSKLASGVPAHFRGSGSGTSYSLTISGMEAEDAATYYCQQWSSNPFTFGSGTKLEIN
light: EIVLTQSPATLSLSPGERATLSCSASSSISSNYLHWYQQKPGQAPRLLIYRTSNLASGIPARFSGSGSGTDYTLTISRLEPEDFAVYYCQQGSYIPFTFGQGTKLEIKRTVAAPSVFIFPPSDEQLKSGTASVVCLLNNFYPREAKVQWKVDNALQSGNSQESVTEQDSKDSTYSLSSTLTLSKADYEKHKVYACEVTHQGLSSPVTKSFNRGEC
notes: Heavy chain: h10B3 VH, IgG1 CH1, hinge, modified CH2, beginning of CH3, murine OKT3 scFv; also called h10B3xOKT3 Fabsc
[2]
  binding result: binds

B3: PSMA (humanized h10B3) x CD3 (humanized hUCHT1) bispecific IgGsc format antibody molecule (bispecific antibody)
heavy: QVQLVESGGGLVKPGGSLRLSCAASGFTFSDFYMYWIRQAPGKGLEWVATISDGGGYTSYPDSVKGRFTISRDNAKNSLYLQMNSLRAEDTAVYYCARGLWLRDALDYWGQGTTVTVSSASTKGPSVFPLAPSSKSTSGGTAALGCLVKDYFPEPVTVSWNSGALTSGVHTFPAVLQSSGLYSLSSVVTVPSSSLGTQTYICNVNHKPSNTKVDKKVEPKSCDKTHTCPPCPAPPVAGPSVFLFPPKPKDTLMISRTPEVTCVVVGVSHEDPEVKFNWYVDGVEVHNAKTKPREEQYNSTYRVVSVLTVLHQDWLNGKEYKCKVSNKQLPSPIEKTISKAKGQPREPQVYTLPPSRDELTKNQVSLTCLVKGFYPSDIAVEWESNGQPENNYKTTPPVLDSDGSFFLYSKLTVDKSRWQQGNVFSCSVMHEALHNHYTQKSLSLSPGKSGDIQMTQSPSSLSASVGDRVTITCRASQDIRNYLNWYQQKPGKAPKLLIYYTSRLESGVPSRFSGSGSGTDYTLTISSLQPEDFATYYCQQGNTLPWTFGQGTKVEIKGGGGSGGGGSGGGGSEVQLVESGGGLVQPGGSLRLSCAASGYSFTGYTMNWVRQAPGKGLEWVALINPYKGVSTYNQKFKDRFTISVDKSKNTAYLQMNSLRAEDTAVYYCARSGYYGDSDWYFDVWGQGTLVTVSS
light: B2 light
notes: also called CC-1; PSMAxCD3 (h10B3xUCHT1)-IgGsc
[3]
  binding result: binds
